Here are results for 17 sequences from the DeepSol protein solubility set.

This data set in a line: soluble on expression in E. coli; label from the status in PepcDB or PDB records.
As to “MSLTEPEDPSRERLKHHFAQRVIHQARQILEIWQRLQRSEWSTTDMSELCEANLRLLRFAERFEQPEHTQLARSISQSLEAVDANRGRLSSNLITDLNRLMQRLSRTGLRHGDQLEQTFLPPLRKPIYVMLQDHDRAERLAKQLEFFGLSAQSLDSIPAFRSSMVERLPAAIVIDVDFCGAGMGLTLAAEAQVGLEQKLPLLFFSLHETDTPTRLAAVRAGGQEFLTGTLEASSLLEKIEVLTCVAQYEPYKVLIIDDSRAQALHTERLLNSAGIVTRTLIEPIQAMAELADFQPDLIILDMYMPACTGTELAKVIRHNDRYVSVPIIYLSAEDDLDKQLDAMSEGGDDFLTKPIKPRHLITTVRNRAARARNLKARMVRDSLTGLYNHTHILQLLEDCSFRARREGKPLSFAMLDIDHFKRVNDSHGHPMGDRVIKSLALFLKQRLRKTDFIGRYGGEEFAIVMPDTDQDAACKVLDEIRQRFAEIHYPAQPQDLWCTFSAGVVEMQEDSDSLIMASQADEALYRAKHGGRNRVQAARSSQSAIFSSESTDSVITLEGHHHHHH”, the “soluble on expression in E. coli” value is on record as “soluble”.

As to “MSQYSNMYKFEIDIQGNLEEVYGRIFSVLKQAGYIILSYVDVAEILQRTMQKKIDPLYILNICKPAAANEFISESYETSMFIPCKLVLHQMGENTRVSLQLISPQIETFTDLSTDVAKKYENEIVDILKKM”, the “soluble on expression in E. coli” value was “not soluble”.

Take “MERVTVRMARSDRRTPWGFGVTEAPDGAVLIVNVIGGSLADRAGLRNGDVVDRLEDLDNLDINAVDRLLVTAHEKIELIVTRQPSGAATRIWRPEVTENTGPGQDQTPYRVNLQHSSDTRPPQGFNNSALPFETDQRVKHMQYNSPLGIYSDKSAAEQYVQQTQGLGDNSGARAAAQRQDEPAYLRSETLRLLKEQEHGSAGGAGTTLSNHPNPSGLPVCFMCTRPILGVMARAAGKNLHGDCLSCATCGNSLRNVGHHFIEDKFYCDIHGTQRKHGGRPGMDPNIFVKSSPTAAQPVHIQDSPRAAYHPQVNTARPVSVSPAPSAGSKTVTTHYHTPKTQGILSPGQRGVPTAAFGADLSKSVTYGGGVGPGGTHYDSNRLSPAPSQYSTQSRNQSQQHYQQHVVQAPPPVPSNPPPSNEQQSQSRVQNLPDSVRSAVSPRRSGKSPRQWPPPAMPTTNRYWQIDPADALKKEKVNYGEDLVALIKEVEQSKEKEPKVKKEPKKGTRGARRASNISKEQVQQAFEEQRKRTERKEIKKLEKEIKPKPELKVEVPVEPLVVPTSKPLEEPCPEALPPPKINDGIHWTVIHSPVLRSPSPAKVTSEAAIPESNGVVKPIPSYASQPIGISKTSTPQPFRPGSQVERPHYSSVGLKDVHAPVPLPRSPQHSPQPVQSYIVRSSDANVTTSTNLQTTVTRQYTENDNKSQFLQQPHPDTIDSSTSPIPTIRLNRHTKPEPSTPLSVPTVSINDIATSPIKITEPSRPWRASVSNSATSPIKIHESRVQPVDESRGLHRHEEKAQIETSTIKIHEPSSPPPSVHKFGAVNTRAAPAPVQFMQTPRIAVKIHEPTGPSPTPPSTPSHPIKRDPKHFKKVDFSKTSPTVIPEWKDSADIVDESDILTECSREDDSISFLKAATYDGDESEMIDNNIDNKSDITSTFDIEEEEVDVVQDRERIRVVGRKGGEGGEAEKQWRQRAMELLDDDAQTERDLRIVAALNERLQGLREMEDDDRVRAIECIARHQSELEQTQTQLSTLLESAIVYLQNLRPELELTEPIDNDAKSLETVKFEPTRAEQRVNEIRKKVLEDLEHLPILGDGMDSVPPPPPERKVFPFQSYQPIAPQFPVPAAESPVTQSLHDVLDEFYSLRKPTPTQNVAQSSDTTAEDSRNFLASRLGQVMIDENKKAGGSNGSSQHHNQQGSSYTKTSFERTTTETRPQQNTGAPRAGDFRGTGHLTTTTTTQQNGGRAPFCESCKQQIRGAFVLATGKSWCPEHFVCANSSCRRRLLECGFVEEDGQKFCESCFEQHIAPRCNKCSKPIISDCLNALQKKWHPTCFTCAHCQKPFGNSAFYLEQGLPYCEQDWNALFTTKCVSCRYPIEAGDRWVEALGNAFHSNCFTCARCNHNLEGESFFAKNGQPFCRLHA”: the “soluble on expression in E. coli” value is reported as “not soluble”.

Take “MGSKAKKRVLLPTRPAPPTVEQILEDVRGAPAEDPVFTILAPEDPPVPFRMMEDAEAPGEQLYQQSRAYVAANQRLQQAGNVLRQRCELLQRAGEDLEREVAQMKQAALPAAEAASSG”: the “soluble on expression in E. coli” value is “soluble”.

With “MAHDVEVKNAVRGAYVFDRLSLEMAAEKAGVSFGTARRWKANAESNGDNWDKARDVHVMASGGIENIAQGLLTGFLIKYRKLMSELEENTEMATAAKVEALSALADSFAKMTASSKKLLPETSAMATAMRAIEMMANIVKSKKPHLLPDFLEMLDDLEVQFKKEFK”, the “soluble on expression in E. coli” value was “not soluble”.

For “MNLNYTIASQVNPHVVPFMQSDASRYRKDILSWPQRILRRQGKVISLGIMDFTRERLGNVPPVRRLLDHGYGIVGQRYYGDVNIIAPFNLRQYAYMLQNPRPHLFKLLQQQGERATLEHHHHHH”, the “soluble on expression in E. coli” value is “soluble”.

Turning to “MTLDLDNMTQAEFDEVMAEIQLQSPNIFQLISDFVNKKVTSVEIDDLLNMKRAETGKALSPLQIQELQYMLEDFSPELIHEALKEAVSQGKANFAYIKVILNRWKQDNLLTVELVRNSRAAREAKKQQTNQLEPTSYEDWIPTQEKPF”, the “soluble on expression in E. coli” value was “not soluble”.

For “MGHHHHHHSHMTSEQIPNRVLLFDGVCNLCNGAVQFIIKRDPDGLISFTSLQSETGQSLLKKSGLPTDRFDSFVFIEDGQVYTKSTAAIKVFRHLRGPWRLFVLFFAVPKPVRDMVYSFIAKNRYKWFGKKNECMLPSPSIKKRFLP”, the “soluble on expression in E. coli” value is recorded as “not soluble”.

In the case of “PLKIGPPGHRYAFPLYSSKNLERDDLRGIRRLVIVLHGVKRNAASIHGTVTALFAANPERAEDTLVIAPKFASAIDAGFAAMPAWRRASWEDGELSMQARGRPAPVSSLQVLDDLLRELSDSSRLPALRTIVLAGHSGGAQLVQRYAVLNSLDETL”, the “soluble on expression in E. coli” value is “not soluble”.

Consider “MEKKIGKLSIRVLLNTHRRNDCEIYPLIIRVVYHRRKSEYSLGWKIHTSNFSADRERVVYSSTGNLKRKDLGLINDAISQERERLLKIFAFLQQNMPGFSLSQLMDKYRMERNLRYVDAFIVREIERLRQEGRSGTAGLYLSGLYSLRRFLRGQKITFRELTYCFLTDYIHFLRMRGISENTVNMYIRNLRAVYNKAQKQGINMGCESPFRELKLQTQETAKRALCKHDIARIVSVDLSSEPLLDRARDLFMFSFYARGMPFVDIVFLKHDSIINGIIYYERNKTGQRMQVRVIPPLAALIEKYRSSYPYVLPYITSFSDRTSYMQYRYALGNVNRLLKRLGRRLHLPLVLTTYVARHSWATIAKEEGFSIASISEGLGHTSEATTQIYLQSFNSEVIDKINEQVVASIGRHI”, for which the “soluble on expression in E. coli” value is recorded as “not soluble”.

As to “APLAHCDGRGGLKLSQDMDTCEDILPCVPFSVAKSVKSLYLGRMFSGTPVIRLRFKRLQPTRLVAEFDFRTFDPEGILLFAGGHQDSTWIVLALRAGRLELQLRYNGVGRVTSSGPVINHGMWQTISVEELARNLVIKVNRDAVMKIAVAGDLFQPERGLYHLNLTVGGIPFHEKDLVQPINPRLDGCMRSWNWLNGEDTTIQETVKVNTRMQCFSVTERGSFYPGSGFAFYSLDYMRTPLDVGTESTWEVEVVAHIRPAADTGVLFALWAPDLRAVPLSVALVDYHSTKKLKKQLVVLAVEHTALALMEIKVCDGQEHVVTVSLRDGEATLEVDGTRGQSEVSAAQLQERLAVLERHLRSPVLTFAGGLPDVPVTSAPVTAFYRGCMTLEVNRRLLDLDEAAYKHSDITAHSCPPVEPAAA”, the “soluble on expression in E. coli” value is recorded as “soluble”.

With “MATITQRNGKWRVQIRMKGVSRSATFERASDAKAWAARIESQIMDGIQGNAPRNTIFADLIRRYLSEVTPSKRGAREESYRIGRALKTPLAKVRLADLRPQDFADWRDQRLQEVSPTSVGRELTTLSAVCEHAMKEWGLLRENPVRKISKPKKSRARTRRPTEQEIADICAALLYRPNEKPKMAVQRVAVAVLFAIETAMRAGEICGLKWADVNMRRRIAHLPITKNGDSRDVPLSLRAAELIEQLRGIDDTWVFSLDAKSLDVLFRRARDNCGIQGLHFHDTRREALTRLSKKVPVEVLAKISGHRDLRILLNVYYRPDMADIAKMLD”, the “soluble on expression in E. coli” value is given as “not soluble”.

As for “MGSDKIHHHHHHMDDLMGYVIGETSNTELNFLAKHMPEIGSYVSINYCDLEILGMVESVNQGCKIFEDVYNVKDFEKLKDFENNDSYYTIGKIKILGDVKNMQIPRIPPKPGTEVYDASEKILGEIFSKGTIEIGNLISADSKVKLDVNKLCSRHLAILAITGMGKSNTVSVLLEELNNIHATVLVFDMHREYVEIEAKNSTIRRNIIRPKINVYNMSYDALMSLAGVDPQATVQRAMGRRAMKKIKESKKEVDFNTVDEYINSIINELNYYMGMDEFKSKVDSILTLIMRFEDLMTFKDKITAINYNPIQDIKENYVNIVDISELDESSTDLIISYFTGEILKDRKKVLWDTKVAKPIFIIYEEAHLIVPQNRPTKSKIPISKIAREGRKFGVGICLVSQRPKTLDQESLSQCNNFIISKLIEPSDQKHVQHASENLSEDLLNQLPGLNVGEAVIIGPCLKIPAMVKIKRFEGEYGGEDVKFDELWTTEKEKNIPEFIESNELFNDDL”, the “soluble on expression in E. coli” value was “not soluble”.

Consider “SLIENSHVKKDDIWPSGGQMTVKDLTAKYTEGGNAILENISFSISPGQRVGLLGRTGSGKSTLLSAFLRLLNTEGEIQIDGVSWDSITLEQWRKAFGVIPQKVFIFSGTFRKNLDPYEQWSDQEIWKVADEVGLRSVIEQFPGKLDFVLVDGGCVLSHGHKQLMCLARSVLSKAKILLLDEPSAHLDPVTYQIIRRTLKQAFADCTVILCEARIEAMLECDQFLVIEENKVRQYDSILRLYHYPADRFVAGFIGSPKMNFLPVKVTATAIDQVQVELPMPNRQQVWLPVESRDVQVGANMSLGIRPEHLLPSDIADVILEGEVQVVEQLGNETQIHIQIPSIRQNLVYRQNDVVLVEEGATFAIGLPPERCHLFREDGTACRRLHKEPGV”, for which the “soluble on expression in E. coli” value was “not soluble”.

As to “MEERDSETGWRGSREGWLQAAYEALIEGGVESVKIMTLAARLKLSRTSFYWFFKDRADVLDALRSQWAGTTTAPLVAASAEYAESRAEAMLNVLACFLSGRFDARFEFAARSWGLQDPAMAAAVEAADAERLAALTDMLARWGHDPQEADVRARTVYLVQIGYISMRAEETLETRLARIPNYVEIYTGVRPEPREMARFRARLGLAV”, the “soluble on expression in E. coli” value is on record as “not soluble”.

Turning to “GMLKLCGFAASNYYNKVKLALLEKNVPFEEVLAWIGETDTTATPAGKVPYMITESGSLCESEVINEYLEAAYPQTPLLPRDPMQAGKVREIVTFLELYLELTARELYPEAFFGGKVSDNVKERQLKLLSRYVPAFAKLAKFSPYVAGDTFTLADCAAAVHLPLVSSCTKIIYGKDLLADLPVKEYLKTLSERPSVQKVNADRKANTELMLSRNK”, the “soluble on expression in E. coli” value is given as “soluble”.

With “MGSDKIHHHHHHMMEYWIRRALEVVKTPFLLFDLSVVEKKYLEMKAALKKADIYYAVKANSHPRIISLLARLGSNFDVASKGEIEKLLALGVDGKRMSFGNTIKREEDIAFAYKNGIRLFAVDSEMEVEKVAINAPGSFVFVRVETDGADADWPLSRKFGTNPEHALQLLSYASKMKLIPAGLSFHVGSQNLNPESWKKAIEIAGRVFKKAMRSGLNLFLLNVGGGFPVQHTKPIPSMEEIGKAIEEAIDENLWFVHNLKVIAEPGRYMVGEAGWLVTKVLLKSERSGEKWVYIDAGVFHGLAETIQNFEYEIRVLGKEREELEEYHLAGPTCDSVDVIYDRIFLPKSITLNDLVCFINAGAYTVEYNTRFNGIEPPKMVFIEELTEISIEEKIKTRVLD”, the “soluble on expression in E. coli” value was “not soluble”.
